This is an account of results in patent publication US20220119531A1 (I MAB BIOPHARMA US, published 2022).

Test [1] deals with T1, human PD-L1 expressed on mammalian cells (human, UniProt Q9NZQ7 19-290).
T1 construct: whole, on cells; The cell line (CHOK1 or Raji) is named under assay in each row; also called PDL1-CHOK1 cells; PD-L1 Raji cells
Nature of the test: FACS on PD-L1 Raji cells by the text; the axis unit is printed only as 'ng', no volume. As to the method: Briefly, PD-L1 Raji cells were first incubated with 5-fold serially diluted humanized antibodies starting at 2 μg/ml at RT for 1 hour. After wash by FACS buffer (PBS with 2% FBS), the Alexa 488-anti-human IgG antibody was added to each well and incubated at RT for 1 hour. The MFI of Alexa 488 were evaluated by FACSAriaIII.

Test [2] concerns the target T2, PD-L1 K162 alanine-scan mutant (human, UniProt Q9NZQ7 19-290, limits assumed).
T2 construct: Read by flow cytometry
Briefly: alanine-scan library, high-throughput flow cytometry; threshold for critical clones. An excerpt:
(§1) An alanine-scan library of PD-L1 was constructed. Briefly, 217 mutant clones of PD-L1 were generated on Integral Molecular's protein engineering platform. […] For each PD-L1 variant, the mean binding value was plotted as a function of expression (control anti-PD-L1 mAb reactivity).
For orientation: In flow cytometry, cells or beads pass a laser one at a time.

The target of test [3] is T3, PD-L1 Y134 alanine-scan mutant (human, UniProt Q9NZQ7 19-290, limits assumed).
T3 construct: Read by flow cytometry
Described as above.
Text: as §1

Test [4] deals with T4, PD-L1 N183A clone (human, UniProt Q9NZQ7 19-290, limits assumed).
T4 construct: Read by flow cytometry
The test is described as above.
Text: as §1

T1 sequence (Q9NZQ7 19-290): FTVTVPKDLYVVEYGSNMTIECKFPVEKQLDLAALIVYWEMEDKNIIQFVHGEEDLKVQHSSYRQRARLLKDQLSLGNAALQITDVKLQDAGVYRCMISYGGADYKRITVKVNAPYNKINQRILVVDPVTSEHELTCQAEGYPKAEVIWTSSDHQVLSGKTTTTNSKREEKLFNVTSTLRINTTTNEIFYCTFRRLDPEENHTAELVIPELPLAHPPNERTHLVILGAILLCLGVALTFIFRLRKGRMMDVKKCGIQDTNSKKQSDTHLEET
T4 sequence (Q9NZQ7 19-290 N183A limits assumed): as the sequence (Q9NZQ7 19-290) above, with N165A counted along it
T2 sequence (Q9NZQ7 other isoform, or with tags, fused parts or gaps mutant limits assumed): as the sequence (Q9NZQ7 19-290) above, with K144A counted along it
T3 sequence (Q9NZQ7 other isoform, or with tags, fused parts or gaps mutant limits assumed): as the sequence (Q9NZQ7 19-290) above, with Y116A counted along it

B1: Hu1210-41 (antibody, V domains shown)
VH: EVQLVESGGGLVQPGGSLRLSCAASGFTFSSYDMSWVRQAPGKSLEWVATISDAGGYIYYSDSVKGRFTISRDNAKNSLYLQMNSLRDEDTAVYICAREFGKRYALDYWGQGTTVTVSS
VL: DIQMTQSPSSLSASVGDRVTITCKASQDVTPAVAWYQQKPGKAPKLLIYSTSSRYTGVPSRFSGSGSGTDFTFTISSLQPEDIATYYCQQHYTTPLTFGQGTKLEIK
notes: Humanized; also called Hu1210-41 antibody; parental antibody Hu1210-41
For B1, in test [1], the “EC50 (read off the curve)” value is around 0.5 ng.

B2: WT (S60R mutant of Hu1210-41) (antibody, V domains shown)
VH: EVQLVESGGGLVQPGGSLRLSCAASGFTFSSYDMSWVRQAPGKSLEWVATISDAGGYIYYRDSVKGRFTISRDNAKNSLYLQMNSLRDEDTAVYICAREFGKRYALDYWGQGTTVTVSS
VL: DIQMTQSPSSLSASVGDRVTITCKASQDVTPAVAWYQQKPGKAPKLLIYSTSSRYTGVPSRFSGSGSGTDFTFTISSLQPEDIATYYCQQHYTTPLTFGQGTKLEIK
notes: Differs from Hu1210-41 by S60R (Kabat) in the heavy chain; Detected with anti-human IgG; also called S6OR (CDRH2) mutant; parental antibody WT
On to B2, for which the “EC50 (read off the curve)” value in test [1] is around 0.4 ng.

B3: Hu1210-41 Fab (Fab, V domains shown)
VH: EVQLVESGGGLVQPGGSLRLSCAASGFTFSSYDMSWVRQAPGKSLEWVATISDAGGYIYYSDSVKGRFTISRDNAKNSLYLQMNSLRDEDTAVYICAREFGKRYALDYWGQGTTVTVSS
VL: DIQMTQSPSSLSASVGDRVTITCKASQDVTPAVAWYQQKPGKAPKLLIYSTSSRYTGVPSRFSGSGSGTDFTFTISSLQPEDIATYYCQQHYTTPLTFGQGTKLEIK
In the case of B3, the “% WT reactivity” value in test [2], in test [3] and in test [4] was < 30 % of WT in each case.
